Values of other authors, collected in PMC4976022.

Target: HPr (Escherichia coli) (UniProt P0AA04)

Substance: EIN N-terminal domain (from UniProt P08839)
- Kd: 7 µM
